This is an account of results in paper PMC12315501 (2025).

The experiment concerns the target recombinant NbRab‐G3c protein (Nicotiana benthamiana). The experiment can be described thus: ITC.

B1: recombinant Pi17063 protein (natural protein)
chain: ASADSNERLVRAVYSTVRSRDLATDDGPKHTKRFLRGESSKIVNLKQEEGVFEERKGVSQKLTKALQAIKARYLKWEQKVLVPGFKKMAEKGVTYSELRDTFRVRMMNSGRWGTPSGFKRYARLYSEWLHRTGRSHLAK
On to B1, for which the Kd worked out at 1480 nM.

For orientation: Kd means a measure of binding affinity in units of concentration.
